According to EP1471146A2 (Novartis AG, dated 2004):

Molecular target: the molecule itself
Experiment: Western blot of soluble nuclear extracts, seminative electrophoresis (self-association, homotrimer)

B1: recombinant adenovirus type 5 (Ad5) fiber protein expressed from pCLF in cell lines 211A, 211B and 211R (other)
chain: MKRARPSEDTFNPVYPYDTETGPPTVPFLTPPFVSPNGFQESPPGVLSLRLSEPLVTSNGMLALKMGNGLSLDEAGNLTSQNVTTVSPPLKKTKSNINLEISAPLTVTSEALTVAAAAPLMVAGNTLTMQSQAPLTVHDSKLSIATQGPLTVSEGKLALQTSGPLTTTDSSTLTITASPPLTTATGSLGIDLKEPIYTQNGKLGLKYGAPLHVTDDLNTLTVATGPGVTINNTSLQTKVTGALGFDSQGNMQLNVAGGLRIDSQNRRLILDVSYPFDAQNQLNLRLGQGPLFINSAHNLDINYNKGLYLFTASNNSKKLEVNLSTAKGLMFDATAIAINAGDGLEFGSPNAPNTNPLKTKIGHGLEFDSNKAMVPKLGTGLSFDSTGAITVGNKNNDKLTLWTTPAPSPNCRLNAEKDAKLTLVLTKCGSQILATVSVLAVKGSLAPISGTVQSAHLIIRFDENGVLLNNSFLDPEYWNFRNGDLTEGTAYTNAVGFMPNLSAYPKSHGKTAKSNIVSQVYLNGDKTKPVTLTITLNGTQETGDTTPSAYSMSFSWDWSGHNYINEIFATSSYTFSYIAQE
notes: Monomer 62 kD, homotrimer 186 kD; Expressed in 293-derived lines 211A, 211B and 211R; also called recombinant fiber; type 5 fiber protein
binding result: binds
